# Biological target: truncated M1 C-terminal domain ([change], aa 165-252) (influenza/A/FPV/Rostock/34) (UniProt P03487)
# Assay: raster image correlation spectroscopy
substance,measurement,value
"truncated M1 C-terminal domain ([change], aa 165-252) (from UniProt P03487 165-252) (domain or fragment)",brightness of M1 wt relative to M1-C (fold),4.3 fold
